# Results from patent US11466286B2, “Methods and compositions for conferring and/or enhancing herbicide tolerance using protoporphyrinogen oxidase or variant thereof” (FarmHannong Co., Ltd., priority 2016, dated 2022).
# Changes are numbered by the printed parent chain. Names may count otherwise.
# B1: CyPPO13 F373T: CyPPO13 (SEQ ID NO: 4) PPO variant (protein)
# chain: MNPATPEPLNAEVVVIGAGISGLTLAWRLQQGLSARGGSPQAVLLAEASSRVGGCISTQSKDGYRWEEGPNSFTPTPALLNLIAEVGLTDQLVLADAKLPRYIYWEGALLPVPLSPAAALGSRLLSVGGKLRALQGLLGFVPPPPGHEETVRQFFRRQLGSEVAERLVEPFTSGVYAGDPDQLSAVAAFPRVAGLEERYGSLFAGALQALRQRPQPSPAAIQPPPKRGQLGNLRQGLQQLPEALAQKLGDSLRLGWRALQLKRAGELYWVGFETPEGSRWVAARQVVLALPAYEAAALLQELNPPASQLLAEILYPPVAVVALAYPQEALPQPLRGFGHLIPRSQGLRTLGTIWASCLFPERAPQGYHSFLSTLGGATDAALARRRGIPPIPALSPEERAQIAHAELSQVLLTRRAEPVYLGERLWPRAIPQYTLGHRQRIAQVQAHLASQTPGIWVCANYLDGVALGDCVRRAEALAQQLLSQV
# modifications: Synthetic CyPPO13
# B2: CyPPO13 V175L + F373M: CyPPO13 (SEQ ID NO: 4) PPO variant (protein)
# chain: B1 chain with V175L, T373M
# modifications: Synthetic CyPPO13
# B3: CyPPO13 V318M + F373M: CyPPO13 (SEQ ID NO: 4) PPO variant (protein)
# chain: B1 chain with V318M, T373M
# modifications: Synthetic CyPPO13
# B4: CyPPO13 A177L + F373T: CyPPO13 (SEQ ID NO: 4) PPO variant (protein)
# chain: B1 chain with A177L
# modifications: Synthetic CyPPO13
# B5: CyPPO13 A177C + F373M: CyPPO13 (SEQ ID NO: 4) PPO variant (protein)
# chain: B1 chain with A177C, T373M
# modifications: Synthetic CyPPO13
# B6: CyPPO13 A177I + F373M: CyPPO13 (SEQ ID NO: 4) PPO variant (protein)
# chain: B1 chain with A177I, T373M
# modifications: Synthetic CyPPO13
# B7: CyPPO13 A177C + F373T: CyPPO13 (SEQ ID NO: 4) PPO variant (protein)
# chain: B1 chain with A177C
# modifications: Synthetic CyPPO13
# B8: CyPPO13 F373H: CyPPO13 (SEQ ID NO: 4) PPO variant (protein)
# chain: B1 chain with T373H
# modifications: Synthetic CyPPO13
# B9: CyPPO13 A177L + F373V: CyPPO13 (SEQ ID NO: 4) PPO variant (protein)
# chain: B1 chain with A177L, T373V
# modifications: Synthetic CyPPO13
# B10: CyPPO13 F373N: CyPPO13 (SEQ ID NO: 4) PPO variant (protein)
# chain: B1 chain with T373N
# modifications: Synthetic CyPPO13
# B11: CyPPO13 A177L + F373M: CyPPO13 (SEQ ID NO: 4) PPO variant (protein)
# chain: B1 chain with A177L, T373M
# modifications: Synthetic CyPPO13
# B12: CyPPO13 R101A + F373M: CyPPO13 (SEQ ID NO: 4) PPO variant (protein)
# chain: B1 chain with R101A, T373M
# modifications: Synthetic CyPPO13
# Tested on: CyPPO13
# Test: PPO enzyme activity and IC50 by herbicides, CyPPO13 wild type and variants (MBP-PPO fusion)
# Format: biochemical, Synechococcus sp. JA-3-3Ab
# Details: PPO enzyme activity of CyPPO13 protein, wild type = 100
# Description: The enzyme activities of PPO protein and PPO protein variants were examined, and inhibition assay by PPO-inhibiting herbicides was conducted. It was confirmed that the PPO protein has low water-solubility, but in case of being expressed as a fusion protein with MBP (maltose binding protein) (MBP-PPO), the PPO protein is able to be stably expressed as water-soluble form. Therefore, the wild type and variant proteins which were expressed in the form of fusion protein with MBP were used in the present test (refer to FIG. 4).
# In order to express wild type genes and mutant genes of CyPPO10 and CyPPO13 (refer to Example 1 and Example 4), those genes were introduced to pMAL-c2X vector (refer to FIG. 5) respectively, and then cloned to BL21 (DE3) E. coli (CodonPlus).
# The enzyme activity of the purified wild type protein and variant proteins of CyPPO10 and CyPPO13 was measured by the following process.
# At first, a substrate of PPO protein, Protoporphyrinogen IX was synthesized. This process was performed in the space where nitrogen gas is streamed. 6 mg of protoporphyrin IX was dissolved in 20% (v/v) EtOH 20 ml, and stirred under dark condition for 30 minutes. The obtained protoporphyrinogen IX solution was put into a 15 ml screw tube in an amount of 800 and flushed with nitrogen gas for 5 minutes. To this, 1 g of sodium amalgam was added and vigorous shaking was performed for 2 minutes. The lid was open to exhaust hydrogen gas in the tube. Thereafter, the lid was closed and incubated for 3 minutes. The […] was filtered using syringe and cellulose membrane filter. To 600 μl of the obtained […], 2M MOPS [3-(N-morpholino)propanesulfonic acid] was added in an amount of approximately 300 thereby adjusting pH to 8.0. To determine the enzyme activity of PPO protein, a reaction mixture was prepared with the following composition (based on 10 ml): 50 mM Tris-Cl (pH 8.0); 50 mM NaCl; 0.04% (v/v) Tween 20; 40 mM glucose (0.072 g); 5 units glucose oxidase (16.6 mg); and 10 units catalase (1 μl).
# Two hundred microliters (200 μl) of reaction mixture containing a purified PPO protein were placed in 96 well plates, and preincubated for 30 min at room temperature to reduce the oxygen concentration by the reaction of glucose oxidase-catalase. The mineral oil was layered and then the reaction was initiated by adding the substrate, […], to a final concentration of 50 μM. The reaction proceeded at room temperature for 30 min and the fluorescence of protoporphyrin IX was measured using Microplate reader (Sense, Hidex) (excitation: 405 nm; emission: 633 nm). To calculate the PPO enzyme activity, protoporphyrinogen IX solution was kept open in the air to oxidize the solution (overnight). To this, 2.7N HCl was added, and the absorbance at 408 nm was measured. A standard curve was generated using standard protoporphyrin IX, and the PPO activity was measured by calibration of protoporphyrin IX using the standard curve of protoporphyrin IX.
# The final concentration of each herbicide was as follows: […]
row,Molecule,Activity (%)
1,B1,81%
2,B2,93%
3,B3,72%
4,B4,62%
5,B5,77%
6,B6,75%
7,B7,80%
8,B8,26%
9,B9,49%
10,B10,40%
11,B11,75%
12,B12,55%
